± gives the uncertainty stated by the source.
B1: Peroxisome proliferator-activated receptor delta, residues 71 to 145; numbered along this chain, Q03181 (parent)
chain: NMECRVCGDKASGFHYGVHACEGCKGFFRRTIRMKLEYEKCERSCKIQKKNRNKCQYCRFQKCLALGMSHNAIRF
B2: POU domain, class 2, transcription factor 2, residues 200 to 269; numbered along this chain, P09086 (parent)
chain: LEELEQFARTFKQRRIKLGFTQGDVGLAMGKLYGNDFSQTTISRFEALNLSFKNMCKLKPLLEKWLNDAE

Variants of: B1
Experiment: abundance fitness (aPCA) (normalised: wild type 0, dead -1); higher = more abundant; growth selection in yeast, the domain comes from the species named
Conditions: Homo sapiens

Abundance fitness: each site, then its substitutions
E3: H -0.027 ± 0.077, P -0.353 ± 0.058, V -0.178 ± 0.045, Y -0.182 ± 0.086, N -0.079 ± 0.068, D 0.059 ± 0.064, T -0.102 ± 0.047, L -0.106 ± 0.041, F -0.086 ± 0.08, Q -0.059 ± 0.048, R -0.327 ± 0.041, S -0.033 ± 0.041, C -0.278 ± 0.076, I -0.044 ± 0.081, A -0.204 ± 0.047, K -0.089 ± 0.057, W -0.176 ± 0.054
G8: Q -0.253 ± 0.064, T -0.447 ± 0.068, W -0.812 ± 0.13, D -0.434 ± 0.1, S -0.362 ± 0.045, A -0.382 ± 0.052, V -0.899 ± 0.093, F -0.779 ± 0.23, H -0.064 ± 0.087, L -0.598 ± 0.07, Y -0.438 ± 0.15, M -0.782 ± 0.12, C -0.582 ± 0.095, E -0.32 ± 0.061, K -0.563 ± 0.1, P -0.891 ± 0.11, I -0.687 ± 0.34
N1: K -0.075 ± 0.073, T -0.012 ± 0.067, V -0.141 ± 0.057, A -0.179 ± 0.067, E -0.07 ± 0.065, Q -0.218 ± 0.12, I 0.16 ± 0.078, D -0.049 ± 0.066, H -0.155 ± 0.11, C -0.421 ± 0.11, G -0.212 ± 0.049, L -0.455 ± 0.084, Y -0.266 ± 0.15, W -0.593 ± 0.12, R -0.296 ± 0.064, P -0.475 ± 0.21
D9: H -0.668 ± 0.2, E -0.154 ± 0.044, G -0.198 ± 0.037, F -0.283 ± 0.082, A -0.065 ± 0.043, K -0.548 ± 0.12, I -0.345 ± 0.12, C -0.305 ± 0.075
C7: Y -0.673 ± 0.14, I -0.877 ± 0.22, F -0.867 ± 0.25, M -0.984 ± 0.18, P -0.759 ± 0.14, D -0.952 ± 0.34, K -0.63 ± 0.13, H -0.21 ± 0.14, E -0.656 ± 0.099, S -0.575 ± 0.067, L -0.782 ± 0.089, N -0.412 ± 0.11, Q -0.584 ± 0.11, R -0.793 ± 0.077, W -0.895 ± 0.15, A -0.66 ± 0.11, G -0.504 ± 0.06, T -0.862 ± 0.13
R5: H -0.257 ± 0.1, F -0.326 ± 0.091, D 0.032 ± 0.05, S 0.034 ± 0.038, K 0.139 ± 0.05, W -0.118 ± 0.047, E 0.105 ± 0.045, Y -0.085 ± 0.088, P -0.376 ± 0.055, I -0.176 ± 0.067, N 0.089 ± 0.064, L 0.003 ± 0.037, V 0.091 ± 0.035, C -0.13 ± 0.063, T -0.018 ± 0.043, Q 0.113 ± 0.047, G -0.045 ± 0.031, M 0.067 ± 0.048, A 0.175 ± 0.034
M2: D -0.056 ± 0.079, W -0.527 ± 0.098, L -0.315 ± 0.059, V -0.155 ± 0.051, E -0.227 ± 0.063, P -0.58 ± 0.11, R -0.417 ± 0.048, F -0.432 ± 0.39, S -0.305 ± 0.056, H -0.276 ± 0.12, C -0.064 ± 0.08, Y -0.113 ± 0.1, N -0.21 ± 0.09, T -0.156 ± 0.052, A -0.526 ± 0.091, K -0.249 ± 0.082
C4: P -1.07 ± 0.18, H -0.576 ± 0.17, T -0.962 ± 0.15, E -0.571 ± 0.12, M -0.461 ± 0.11, I -1.14 ± 0.4, Q -0.738 ± 0.12, W -0.747 ± 0.13, F -0.675 ± 0.2, K -0.775 ± 0.13, N -0.738 ± 0.2, Y -0.693 ± 0.14, G -0.911 ± 0.12, S -0.669 ± 0.082, R -0.558 ± 0.07
V6: S -1.07 ± 0.14, L -0.614 ± 0.067, I 0.059 ± 0.069, N -0.624 ± 0.17, P -0.923 ± 0.12, M -0.674 ± 0.12, C -0.873 ± 0.19, Q -0.968 ± 0.2, R -0.839 ± 0.072, K -0.745 ± 0.14, E -0.561 ± 0.11, Y -0.748 ± 0.17, D -0.823 ± 0.19, A -0.619 ± 0.07, H -0.914 ± 0.32, W -0.934 ± 0.14, T -1.18 ± 0.19, F -0.547 ± 0.14, G -0.841 ± 0.079

Variants of: B2
Experiment: as above
Conditions: Homo sapiens

Abundance fitness, by site and new letter:
K59: G -0.079 ± 0.038, A -0.086 ± 0.054, I 0.001 ± 0.13, R -0.078 ± 0.047, F -0.14 ± 0.094, W -0.078 ± 0.054, N -0.435 ± 0.11, T -0.167 ± 0.049, E -0.293 ± 0.047, Q -0.094 ± 0.076, V -0.031 ± 0.036, P -0.761 ± 0.12, C -0.14 ± 0.066, L -0.069 ± 0.035, H -0.098 ± 0.14
L61: Q 0.013 ± 0.042, H -0.064 ± 0.079, T 0.008 ± 0.04, F 0.05 ± 0.096, S -0.038 ± 0.04, M -0.031 ± 0.044, G -0.093 ± 0.032, C 0.026 ± 0.048, K 0.032 ± 0.056, Y -0.082 ± 0.15, A -0.043 ± 0.041, I -0.141 ± 0.1, R -0.038 ± 0.031, V -0.064 ± 0.032, P -0.027 ± 0.032, D -0.006 ± 0.14
P60: M -0.207 ± 0.076, Y -0.378 ± 0.082, L -0.156 ± 0.036, R -0.102 ± 0.035, N -0.177 ± 0.1, H -0.216 ± 0.14, C -0.177 ± 0.059, Q -0.103 ± 0.059, K -0.295 ± 0.13, W -0.334 ± 0.065, D -0.082 ± 0.077, G -0.016 ± 0.044, T -0.06 ± 0.052, E -0.109 ± 0.048, I 0.098 ± 0.069, F -0.05 ± 0.079, V -0.035 ± 0.036, S -0.069 ± 0.057, A -0.124 ± 0.044
K64: A 0.081 ± 0.084, C -0.117 ± 0.095, Y -0.24 ± 0.073, P -0.343 ± 0.067, E -0.016 ± 0.064, H 0.041 ± 0.11, Q 0.008 ± 0.052, W -0.257 ± 0.072, D 0.003 ± 0.09, V -0.048 ± 0.054, I -0.158 ± 0.14, S -0.084 ± 0.073, M -0.096 ± 0.069, L -0.049 ± 0.046, R -0.054 ± 0.037, N -0.232 ± 0.11
K57: R -0.064 ± 0.031, T 0.024 ± 0.041, V -0.088 ± 0.042, N -0.125 ± 0.091, E -0.05 ± 0.062, P -0.44 ± 0.064, M 0.01 ± 0.049, Q -0.023 ± 0.061, G 0.002 ± 0.031, W -0.068 ± 0.048, S -0.067 ± 0.049, L -0.08 ± 0.041, Y -0.089 ± 0.11, I -0.153 ± 0.085
E70: W -0.073 ± 0.065, H -0.341 ± 0.15, C -0.092 ± 0.12, F -0.2 ± 0.19, P -0.253 ± 0.22, R -0.164 ± 0.052, Q -0.07 ± 0.072, N -0.066 ± 0.16, G -0.072 ± 0.069, S 0.071 ± 0.084, T -0.086 ± 0.089, D 0.054 ± 0.054, K -0.128 ± 0.085, V -0.035 ± 0.042, Y -0.195 ± 0.11, A -0.047 ± 0.07, M -0.072 ± 0.11
A69: Y -0.107 ± 0.093, R -0.007 ± 0.049, T 0.056 ± 0.069, G -0.126 ± 0.049, I 0.012 ± 0.11, F -0.179 ± 0.085, D -0.233 ± 0.088, L -0.034 ± 0.062, V -0.084 ± 0.057, K -0.105 ± 0.063, S -0.046 ± 0.051, E 0.009 ± 0.069, P -0.15 ± 0.054, N 0.128 ± 0.25
L66: E -0.409 ± 0.077, Q -0.358 ± 0.076, I 0.03 ± 0.11, R -0.837 ± 0.079, Y -0.047 ± 0.16, P -0.719 ± 0.3, D -0.358 ± 0.18, G -0.38 ± 0.046, S -0.238 ± 0.043, V 0.007 ± 0.045, H -0.526 ± 0.36, W -0.232 ± 0.058, F -0.27 ± 0.11, T -0.355 ± 0.081, A 0.001 ± 0.056, C 0.025 ± 0.084, M -0.027 ± 0.057
L62: S -0.804 ± 0.1, I 0.014 ± 0.096, C -0.096 ± 0.1, R -0.968 ± 0.11, E -0.974 ± 0.13, T -0.501 ± 0.1, M 0.025 ± 0.05, D -0.999 ± 0.1, V -0.043 ± 0.049, G -0.744 ± 0.064, Y -0.076 ± 0.17, A -0.166 ± 0.04, P -0.93 ± 0.27, K -0.896 ± 0.15, Q -0.843 ± 0.18
W65: Y -0.128 ± 0.093, K -0.716 ± 0.16, R -0.628 ± 0.066, E -0.923 ± 0.17, Q -0.843 ± 0.18, M -0.309 ± 0.12, S -0.522 ± 0.11, G -0.71 ± 0.088, P -0.433 ± 0.15, T -0.362 ± 0.061, V -0.198 ± 0.065, C -0.243 ± 0.06, A -0.469 ± 0.063
L58: E -0.478 ± 0.091, N -0.227 ± 0.11, F 0.005 ± 0.095, S -0.228 ± 0.054, K -0.099 ± 0.06, W -0.007 ± 0.038, M -0.011 ± 0.067, P -0.747 ± 0.12, A -0.002 ± 0.04, C -0.067 ± 0.063, H -0.221 ± 0.11, I 0.057 ± 0.11, R -0.259 ± 0.03, V -0.005 ± 0.037, D -0.576 ± 0.074, Q -0.194 ± 0.08, T -0.049 ± 0.061, Y -0.157 ± 0.06, G -0.619 ± 0.042
D68: W -0.147 ± 0.06, H -0.205 ± 0.14, P -0.349 ± 0.03, R -0.022 ± 0.029, K -0.015 ± 0.044, E -0.047 ± 0.052, V -0.054 ± 0.043, I -0.22 ± 0.088, F 0.085 ± 0.11, Y -0.076 ± 0.074, C -0.053 ± 0.066, Q -0.063 ± 0.079
N67: Y -0.497 ± 0.38, D -0.221 ± 0.22

Reference: the Human Domainome abundance scans (Beltran et al. 2025)
